Results as given in patent US20110217237A1 (AbbVie / Abbott, published 2011).
Positions count from the first letter of the chain named. Like-named read-outs stand apart in the source and are kept apart here. Blank lines part the entries; values can stand above or below the binder they belong to.

Tests used:
[1] = target: T1, human DLL4 extracellular domain (human, UniProt Q9NR61 27-529); assay: capture ELISA, biotin-huDLL4 ECD
T1 construct: purified recombinant ECD; biotin-labelled or 6xHis-tagged depending on the assay; also called huDLL4 ECD; hu DLL4 ECD

[2] = target: T2, human DLL4, full length, on cells (human, UniProt Q9NR61 27-685); assay: FACS, DLL4 cells
T2 construct: also called huDLL4 cells; human DLL4-293G
Description: Stable cell lines overexpressing cell-surface DLL4 were harvested from tissue culture flasks, washed four times and resuspended in phosphate buffered saline (PBS) containing 1% bovine serum albumin and 1 mM CaCl₂ (FACS buffer). 1.5×10⁵ cells were incubated with antibodies at various concentrations in FACS buffer for 60 minutes on ice. […] Following an incubation on ice (4° C., 60 minutes), cells were washed three times and resuspended in FACS buffer. Fluorescence was measured using a Becton Dickinson FACSCalibur-HTS (Becton Dickinson, San Jose, Calif., US). Data were analyzed using Graphpad Prism software and EC₅₀ values were reported as the concentration of antibody to achieve 50% of maximal DLL4 antibodies binding to DLL4 expressing cells.
The good binder variants, as determined by binding ELISA, were assessed by Biacore (Example 1.1) concurrently with cell based assay screens. The KD for human DLL4 was similar for all variants (see, Biacore, KD in Table 18, below).

[3] = target: T3, mouse DLL4 extracellular domain (mouse, UniProt Q9JI71 27-532); assay: SPR (Biacore)
T3 construct: extracellular domain; also called muDLL4 ECD; murine DLL4
Description: (§1) The BIACORE® surface plasmon resonance assay (Biacore, Inc., Piscataway, N.J., US) determines the affinity of antibodies with kinetic measurements of on-rate and off-rate constants. Binding of DLL4 antibodies to a purified recombinant DLL4 extracellular domain (ECD) was determined by surface plasmon resonance-based measurements with a Biacore® instrument (either a Biacore 2000, Biacore 3000, or Biacore T100; GE Healthcare, Piscataway, N.J., US) using running buffer HBS-EPB (10 mM HEPES [pH 7.4], 150 mM NaCl, 3 mM EDTA, 0.1 mg/ml BSA and 0.005% surfactant P20) at 25° C. For example, approximately 9000 RU of goat anti-human Fc specific polyclonal antibody (Thermo Fisher Scientific Inc., Rockford, Ill., US) diluted in 10 mM sodium acetate (pH 4.5) is directly immobilized across a CMS research grade biosensor chip using a standard amine coupling kit according to manufacturer's instructions and procedures at 25 μg/ml. Unreacted moieties on the biosensor surface were blocked with ethanolamine. For kinetic analysis, rate equations derived from the 1:1 Langmuir binding model were fitted simultaneously to multiple antigen injections (using global fit analysis) with the use of Scrubber 2 (BioLogic Software), Biacore Biaevaluation 4.0.1 software or Biacore T100 Evaluation software. Purified antibodies were diluted in running buffer for capture across goat anti-human Fc reaction surfaces. Antibodies to be captured as a ligand (1 μg/ml) were injected over reaction matrices at a flow rate of 10 μl/min. During the assay, all measurements were referenced against the capture surface alone (i.e., with no captured anti-DLL4 antibody). […] The equilibrium dissociation constant KD (M) of the reaction between antibodies and the target antigen was then calculated from the kinetic rate constants by the following formula: KD=Koff/Kₒₙ. Binding was recorded as a function of time and kinetic rate constants were calculated.

[4] = target: T1, human DLL4 extracellular domain; assay: SPR (Biacore)
Description: as §1

[5] = target: T3, mouse DLL4 extracellular domain; assay: competition ELISA vs Notch-1
Description: (§2) Plates were then washed 3 times with wash buffer (PBS, 0.05% Tween-20) and blocked with 200 μl/well blocking buffer (D-PBS, 1% BSA, 1 mM CaCl₂, 0.05% Tween-20) for 1 hour at 25° C. While blocking, biotin labeled DLL4 extracellular domain (14 nM) was mixed with antibody (30 pM-66 nM, 3-fold serial dilution in blocking buffer) for 1 hour at 25° C. with shaking. Assay plates were washed after blocking, and incubated with DLL4/antibody mixtures (100 μl/well, 1 hour at 25° C. with shaking). Plates were washed again and 100 μl/well streptavidin conjugated with HRP (Fitzgerald #65R-S104PHRPx, diluted 1:5,000 in blocking buffer) was added for 1 hour at 25° C. with shaking. After a final wash, plates were developed using 100 μl/well substrate (TMB Sigma #T8665), and the reaction was stopped using 100 μl/well 1N HCl, and the absorbance was read at 450 nm. Data were analyzed using Graphpad Prism software and IC₅₀ values were reported as the concentration of antibody to achieve 50% reduction of DLL4 bound to Notch1.
(§3) Purified variants were further characterized for their affinities for human, murine and cynomolgus DLL4 by binding ELISA (Example 1.2, Method 2), by Biacore (Example 1.1), and by Flow Cytometry (FACS). […] The humanized variants were then tested for their functionality with human and murine DLL4 by competition ELISA (Example 1.3) and by Notch reporter assay (Example 1.6).

[6] = target: T1, human DLL4 extracellular domain; assay: competition ELISA vs Notch-1
Description: as §2, §3

[7] = target: T3, mouse DLL4 extracellular domain; assay: binding ELISA
Description: (§4) Plates were then washed 3 times. 100 μl/well of recombinant rat/human chimeric or recombinant human anti-DLL4 antibodies were then added to the plate (0.00164-27 nM, 4-fold serial dilution in ELISA buffer=PBST, 10% Superblock (Pierce #37515)) for 1 hour at 25° C. with shaking and then washed again 3 times. Plates were incubated with goat anti-human HRP (Pierce #31412) (1:40,000 dilution in ELISA buffer, 100 μl/well) for 1 hour at 25° C. with shaking, then washed 3 times. After the final wash, plates were incubated with 100 μl/well ELISA substrate (Sigma #T8665). The reaction was stopped after 8 minutes at 25° C. with 100 μl/well 1N HCl and the absorbance was read at 450 nm. Data were analyzed using Graphpad Prism software, and EC50 values were reported.
as §3

[8] = target: T1, human DLL4 extracellular domain; assay: binding ELISA
Description: as §4, §3

[9] = target: T4, cynomolgus monkey DLL4 extracellular domain (cynomolgus monkey); assay: binding ELISA
T4 construct: extracellular domain; also called cynoDLL4 ECD; Cyno DLL4
Description: as §4, §3

[10] = target: T2, human DLL4, full length, on cells; assay: cell-based or functional assay
[11] = target: T5, rat DLL4 extracellular domain (rat, UniProt D3ZHH1 28-530); assay: SPR (Biacore)
T5 construct: extracellular domain; also called ratDLL4 ECD
Description: as §1

[12] = target: T3, mouse DLL4 extracellular domain; assay: SPR (Biacore); remark: listed apart in the source
Description: as §1

[13] = target: T1, human DLL4 extracellular domain; assay: SPR (Biacore); remark: listed apart in the source
Description: as §1

[14] = target: T4, cynomolgus monkey DLL4 extracellular …; assay: SPR (Biacore)
Description: as §1

T3 sequence (Q9JI71 27-532): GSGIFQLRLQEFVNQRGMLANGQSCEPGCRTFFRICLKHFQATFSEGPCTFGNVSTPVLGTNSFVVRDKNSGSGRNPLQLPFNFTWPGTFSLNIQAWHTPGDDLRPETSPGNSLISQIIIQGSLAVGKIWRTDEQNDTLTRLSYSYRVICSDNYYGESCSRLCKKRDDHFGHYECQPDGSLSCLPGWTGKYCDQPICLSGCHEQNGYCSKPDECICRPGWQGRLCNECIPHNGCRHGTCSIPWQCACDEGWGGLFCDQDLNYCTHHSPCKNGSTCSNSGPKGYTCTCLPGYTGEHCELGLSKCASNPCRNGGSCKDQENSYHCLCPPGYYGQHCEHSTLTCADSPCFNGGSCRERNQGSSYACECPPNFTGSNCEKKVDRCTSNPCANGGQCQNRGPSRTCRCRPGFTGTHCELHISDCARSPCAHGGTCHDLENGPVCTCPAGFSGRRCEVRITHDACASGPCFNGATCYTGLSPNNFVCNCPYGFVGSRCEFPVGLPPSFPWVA
T1 sequence (Q9NR61 27-529 limits assumed): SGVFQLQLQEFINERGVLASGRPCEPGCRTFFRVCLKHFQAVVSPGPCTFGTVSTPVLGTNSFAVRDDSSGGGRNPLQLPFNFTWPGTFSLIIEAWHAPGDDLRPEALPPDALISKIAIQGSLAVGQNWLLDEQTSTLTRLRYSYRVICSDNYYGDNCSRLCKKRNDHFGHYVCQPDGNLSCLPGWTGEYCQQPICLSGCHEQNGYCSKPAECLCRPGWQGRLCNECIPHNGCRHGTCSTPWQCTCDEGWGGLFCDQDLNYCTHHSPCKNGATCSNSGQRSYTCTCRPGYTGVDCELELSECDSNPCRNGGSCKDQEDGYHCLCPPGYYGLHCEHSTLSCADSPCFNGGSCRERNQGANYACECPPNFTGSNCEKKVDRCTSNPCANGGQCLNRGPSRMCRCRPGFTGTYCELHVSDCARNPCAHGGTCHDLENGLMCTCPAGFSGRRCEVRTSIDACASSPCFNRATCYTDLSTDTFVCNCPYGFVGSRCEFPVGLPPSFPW
T2 sequence (Q9NR61 27-685 limits assumed): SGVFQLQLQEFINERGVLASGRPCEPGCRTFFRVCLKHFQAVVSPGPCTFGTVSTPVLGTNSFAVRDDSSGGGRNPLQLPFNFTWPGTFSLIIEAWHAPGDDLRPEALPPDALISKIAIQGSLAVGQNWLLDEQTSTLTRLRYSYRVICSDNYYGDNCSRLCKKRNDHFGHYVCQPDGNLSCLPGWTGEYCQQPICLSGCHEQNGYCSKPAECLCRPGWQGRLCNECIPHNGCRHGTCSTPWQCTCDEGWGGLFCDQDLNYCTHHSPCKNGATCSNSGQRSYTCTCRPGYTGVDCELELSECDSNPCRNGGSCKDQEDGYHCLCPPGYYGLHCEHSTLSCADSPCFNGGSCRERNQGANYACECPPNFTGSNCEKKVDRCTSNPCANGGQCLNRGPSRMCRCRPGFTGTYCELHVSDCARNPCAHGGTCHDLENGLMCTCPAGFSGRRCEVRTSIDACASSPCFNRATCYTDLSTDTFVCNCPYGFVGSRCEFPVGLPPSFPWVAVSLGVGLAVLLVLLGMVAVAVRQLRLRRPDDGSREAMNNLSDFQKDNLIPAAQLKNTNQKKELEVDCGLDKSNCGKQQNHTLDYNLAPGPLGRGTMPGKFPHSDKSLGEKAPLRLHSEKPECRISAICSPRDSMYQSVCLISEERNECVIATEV
T5 sequence (D3ZHH1 28-530): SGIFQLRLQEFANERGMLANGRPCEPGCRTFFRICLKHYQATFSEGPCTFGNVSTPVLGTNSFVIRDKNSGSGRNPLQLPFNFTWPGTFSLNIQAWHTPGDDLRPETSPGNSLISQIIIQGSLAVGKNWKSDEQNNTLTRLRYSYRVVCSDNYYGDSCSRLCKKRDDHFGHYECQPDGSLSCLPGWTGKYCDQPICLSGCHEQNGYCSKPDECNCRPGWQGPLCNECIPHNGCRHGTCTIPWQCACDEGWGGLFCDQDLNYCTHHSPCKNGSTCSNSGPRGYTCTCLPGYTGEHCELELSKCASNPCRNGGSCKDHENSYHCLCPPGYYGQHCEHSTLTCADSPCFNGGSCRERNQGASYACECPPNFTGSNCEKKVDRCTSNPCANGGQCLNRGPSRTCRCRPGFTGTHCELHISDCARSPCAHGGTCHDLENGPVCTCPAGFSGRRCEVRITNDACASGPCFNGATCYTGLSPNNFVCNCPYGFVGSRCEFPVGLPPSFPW

B4: h38H12.3 (antibody, V domains shown)
VH: EVQLVESGGGVVQPGRSLRLSCAASGFTFSNYGMYWVRQAPGKGLEWVAFISHGGGITYYRDSVKGRFTISRDNSKNTLYLQMNSLRAEDTAVYYCARLNWELGIDYWGQGTMVTVSS
VL: DIQMTQSPSSLSASVGDRVTITCRASEDIYSNLAWYQQKPGKAPKLLIYAANRLQDGVPSRFSGSGSGTDYTLTISSLQPEDFATYYCLQGSKFPLTFGQGTKLEIKR
notes: humanized IgG; also called VH.1/VL.1b 38H12
- EC50 [1]: 5570 pM

B5: h1A11.11 (antibody, V domains shown)
VH: EVQLVESGGGLVQPGGSLRLSCAASGFTFSNFPMAWVRQAPGKGLEWVATISSSDGTTYYRDSVKGRFTISRDNAKNSLYLQMNSLRAEDTAVYYCSRGYYNSPFAYWGQGTLVTVSS
VL: DIQMTQSPSSLSASVGDRVTITCRASEDIYSNLAWYQQKPGKAPKLLIFDTNNLADGVPSRFSGSGSGTDFTLTISSLQPEDFATYYCQQYNNYPPTFGQGTKLEIKR
notes: humanized IgG; also called VH.1b/VL.1b 1A11
- Kd [3]: 27000 pM
- Kd [4]: 12000 pM
- IC50 [5]: 800 pM
- IC50 [6]: 400 pM
- EC50 [7]: 90 pM
- EC50 [8]: 70 pM
- EC50 [9]: 150 pM
- Reporter Assay (EC50, nM) [10]: 3.73 nM

B6: h1A11.B5 (antibody, V domains shown)
VH: B5 VH with S30R, N31Y, A35S, T50S, S53G, T57W, T58A, Y59S, S97A, Y107S
VL: DIQMTQSPSSLSASVGDRVTITCRASQDIWNNLAWYQQKPGKSPKLLIFDTSYLADGVPSRFSGSGSGTDFTLTISSLQPEDFATYYCQQYDWYPPTFGQGTKLEIK
notes: also called h1A11.B5 VH / h1A11.B5 VL
- Kd [11]: 410000 pM
- koff [11]: 0.0397 s⁻¹
- kon [11]: 98200 M⁻¹ s⁻¹
- Kd [12]: 1200 pM
- koff [12]: 0.000166 s⁻¹
- kon [12]: 145000 M⁻¹ s⁻¹
- Kd [13]: 1000 pM
- koff [13]: 0.000134 s⁻¹
- kon [13]: 130000 M⁻¹ s⁻¹
- Kd [14]: 1500 pM
- koff [14]: 0.000178 s⁻¹
- kon [14]: 117000 M⁻¹ s⁻¹

B7: h1A11.12 (antibody, V domains shown)
VH: B5 VH
VL: EIVMTQSPATLSVSPGERATLSCRASEDIYSNLAWYQQKPGQSPRLLIFDTNNLADGVPARFSGSGSGTESTLTISSLQSEDFAVYFCQQYNNYPPTFGQGTKLEIKR
notes: humanized IgG; also called VH.1b/VL.2a 1A11
- Kd [3]: 35000 pM
- Kd [4]: 14000 pM
- IC50 [5]: 900 pM
- IC50 [6]: 400 pM
- EC50 [7]: 80 pM
- EC50 [8]: 60 pM
- EC50 [9]: 160 pM
- Reporter Assay (EC50, nM) [10]: 2.89 nM

B10: h1A11.14 (antibody, V domains shown)
VH: B5 VH with A75S, N77S, S78T
VL: B5 VL with A43S, F71S, Y87F
notes: humanized IgG; also called VH.2a/VL.1a 1A11
- Kd [3]: 28000 pM
- Kd [4]: 13000 pM
- IC50 [5]: 700 pM
- IC50 [6]: 250 pM
- EC50 [7]: 70 pM
- EC50 [8]: 55 pM
- EC50 [9]: 140 pM
- Reporter Assay (EC50, nM) [10]: 4.1 nM

B12: h1A11.10 (antibody, V domains shown)
VH: B5 VH
VL: B5 VL with A43S, F71S, Y87F
notes: humanized IgG; also called VH.1b/VL.1a 1A11
- Kd [3]: 35000 pM
- Kd [4]: 13000 pM
- IC50 [5]: 900 pM
- IC50 [6]: 350 pM
- EC50 [7]: 90 pM
- EC50 [8]: 60 pM
- EC50 [9]: 150 pM
- Reporter Assay (EC50, nM) [10]: 5.88 nM

Other lines, results leading:

- EC50 [1]: 21500 pM
- EC50 [2]: 17800 pM
B1: h38H12.1 (antibody, V domains shown)
VH: B4 VH
VL: B4 VL with Y71F
notes: humanized IgG; also called VH.1/VL.1 38H12

- EC50 [1]: 26900 pM
B2: h38H12.2 (antibody, V domains shown)
VH: B4 VH
VL: B4 VL with Q38K, A43S, Y87F
notes: humanized IgG; also called VH.1/VL.1a 38H12

- EC50 [1]: 20600 pM
B3: h38H12.4 (antibody, V domains shown)
VH: B4 VH
VL: EIVMTQSPATLSVSPGERATLSCRASEDIYSNLAWYQKKPGQSPRLLIYAANRLQDGVPARFSGSGSGTEYTLTISSLQSEDFAVYFCLQGSKFPLTFGQGTKLEIKR
notes: humanized IgG; also called VH.1/VL.2a 38H12

- Kd [3]: 37000 pM
- Kd [4]: 14000 pM
- IC50 [5]: 1000 pM
- IC50 [6]: 300 pM
- EC50 [7]: 90 pM
- EC50 [8]: 60 pM
- EC50 [9]: 160 pM
- Reporter Assay (EC50, nM) [10]: 10.4 nM
B8: h1A11.13 (antibody, V domains shown)
VH: B5 VH with A75S, N77S, S78T
VL: B5 VL with F49Y
notes: humanized IgG; also called VH.2a/VL.1 1A11

- Kd [3]: 39000 pM
- Kd [4]: 15000 pM
- IC50 [5]: 700 pM
- IC50 [6]: 300 pM
- EC50 [7]: 90 pM
- EC50 [8]: 60 pM
- EC50 [9]: 120 pM
- Reporter Assay (EC50, nM) [10]: 2.61 nM
B9: h1A11.16 (antibody, V domains shown)
VH: B5 VH with A75S, N77S, S78T
VL: B7 VL
notes: humanized IgG; also called VH.2a/VL.2a 1A11

- Kd [3]: 37000 pM
- Kd [4]: 14000 pM
- IC50 [5]: 700 pM
- IC50 [6]: 200 pM
- EC50 [7]: 90 pM
- EC50 [8]: 70 pM
- EC50 [9]: 130 pM
- Reporter Assay (EC50, nM) [10]: 5.4 nM
B11: h1A11.15 (antibody, V domains shown)
VH: B5 VH with A75S, N77S, S78T
VL: B5 VL
notes: humanized IgG; also called VH.2a/VL.1b 1A11
